Tests used:
[1] = NOX5 mutants assayed at the cell lysate level, NADH activity; type: biochemical
Method: (§1) Standard assays were performed at 25° C. in 100 mM TEA buffer (pH 7.5) with 5 mM DTT in cuvettes with either a 1 cm or 1 mm path length, depending on the concentration of substrate. Initial activity was measured by following the absorbance change using a Beckman Coulter DU 800 UV/Vis spectrophotometer at 340 nm. Activity of the enzyme was calculated using an extinction coefficient of NAD(P)H, ε, as 6.22 mM^−1 cm^−1. Unless otherwise noted, a substrate concentration of 0.2 mM NADPH was used for assays. 1 unit (U) of activity is defined as […].
(§2) Single mutations were done on residues G178 and L179 into K, R and K, R, H respectively, and double mutations were also investigated with different combinations of the single mutations. The mutation of G178H was excluded due to the fact that the enzyme would then have two histidines next to each other, creating steric hindrance in the binding pocket. The resulting mutants were expressed on small scale and assayed at the cell lysate level.

[2] = NOX5 mutants assayed at the cell lysate level, NADPH activity; type: biochemical
Method: as §1, §2

[3] = Kinetic parameters of purified NADH oxidases, substrate NADH; type: biochemical; settings: purified enzyme, excess of oxygen
Method: as §1
[…] This was conducted with an excess of oxygen present in the system. The reaction was initiated by mixing two separate 2× solutions of each the substrate and enzyme. The specific activity was measured, and the kinetic parameters were calculated from that data.
The data was fitted with four different models: non-linear Michaelis-Menten, Lineweaver-Burk, Eadie-Hofstee and Hanes. Through non-linear fitting, kcat and KM of the wild type were measured to be 211.6 s^−1 and 50.2 μM, respectively with an R^2 of 0.998. (FIG. 5).

[4] = Total turnover number (TTN), NADH; type: biochemical; parameters: key: TTN = change in NAD(P)H concentration / amount of enzyme
Method: Standard kinetic assays were performed with small amounts of enzyme. Assays were carried out for two to three hours until there was no more enzymatic conversion of the substrate.
Total turnover number (TTN) is a measurement of catalyst productivity. For biocatalysts, TTN is defined as the total amount of product produced over the lifetime of an enzyme. […] […] (data not shown).
This experiment was repeated to see if the presence of reducing agents had any effect on the total turnover number. The stock solution of enzyme was dialyzed against 250 mL of 10 mM Tris-HCl (pH 7.5) for two hours. The solution was then exchanged and dialyzed for an additional 2 hours. The TTN was then measured with the dialyzed enzyme with and without reducing agents. DTT and β-mercaptoethanol (β-ME) were used at a concentration of 5 mM. The TTN for the sample with no reducing agents, DTT and β-ME were 128,000, 168,000 and 107,000, respectively.

[5] = pH activity profile; type: biochemical; settings: 25° C., 100 mM buffers
Method: as §1
Enzyme pH activity profiles were obtained at 25° C. using 100 mM buffers with the following salts: sodium citrate from pH 4.0 to pH 6.5; sodium phosphate from pH 6.0 to pH 8.0; TEA from pH 7.0 to pH 8.0; Tris-HCl from pH 7.0 to pH 9.0; glycine from pH 9.0 to pH 10.0.

[6] = Temperature activity profile; type: biochemical
Method: as §1
Temperature dependent activity was studied by incubating the enzyme at different temperatures. After one minute of incubation, the standard assay was carried out. A temperature range of 10 to 55° C. was chosen for this study.

[7] = Temperature stability (30 minutes incubation, assayed at 25° C.); type: physicochemical
Method: Temperature stability was studied by incubating the enzyme at various temperatures for 30 minutes. The enzyme solution was then cooled down and assayed at 25° C. This study covered a temperature range of 15° C. to 55° C.

[8] = Amplex Red assay of H2O2 produced during turnover; type: biochemical; settings: 50 mM sodium phosphate buffer (pH 7.4)
Method: An Amplex Red Hydrogen Peroxide/Peroxidase Assay Kit (Invitrogen) was used to determine the amount of hydrogen peroxide (H2O2) produced during turnover. Various amounts of substrates were reacted and assayed to detect the presence of H2O2. The reactions were carried out in the provided 50 mM sodium phosphate buffer (pH 7.4). Standards for the calibration curve were made with the same reaction buffer.
To determine whether NOX5 is a water or hydrogen peroxide producing enzyme, an amplex red assay was performed. The presence of H2O2 can be confirmed by incubating the standard assay mixture with amplex red and peroxidase. Produced resorufin can be detected using a fluorescence spectroscopy analysis.

B1: NOX5: NADH oxidase V from Lactobacillus plantarum, wild type, 49 kDa, SEQ ID NO: 1 (protein, listed as Lactobacillus plantarum)
chain: MKVIVIGCTHAGTAAVNQILASNPDTEVTIYERNDNVSFLSCGIALYLGGQVADPQGLFYSSPEQLAKLGATVHMQHDVTDVNTDKHEITVTDLKTGESKTDHYDKLVVTTGSWPVIPPIDGIDSPNVYLCKNWTHAQNLWEAAKPAKRVIVIGGGYIGTELVEAYQKQGKEVTLIDGLPRILNKYLDKEFTDRVEQDFVDHGIKMALNQMVQGFSDDGKEVTVKTDKGSYTADMAILCVGFRPNTGLLKGKVDMNANGSIKTNDYMQTSDPDIYGAGDSVAVHYNPTKKDAYIPLATNAVRQGTLVGLNIFKPTRKYMGTQSTSGLMLFGQTIVSSGMTLEHAQAENVPAAAVTFEDNYRPEFMPTTKPVLMQLVYNPETREILGAQFMSEHDVSQSANVISVMIQNHNTIDDLGFVDMFFQPIYDRPFNYLNLLGQAAIAHAAEAVTE
B1 gave an NADH activity [1] of 10.0 U/mg, an NADPH activity [2] of 0.00 U/mg and a Km [3] of 50.2 µM. For the same molecule, the “kcat, NADH” value [3] was 211.6 s⁻¹, the “TTN with DTT, NADH” value ([4]; 5 mM DTT, 25° C., listed as NOX5 WT) was 168,000 and the “TTN with β-mercaptoethanol (β-ME)” value ([4]; 5 mM β-ME, dialyzed enzyme) was 107,000. For the same molecule, the “TTN, NADH” value ([4]; no reducing agents) was 128,000, the “pH of maximum activity” value [5] was 7.5 and the “activation energy, Ea” value ([6]; Arrhenius model) was 7.82 kcal/mol. For the same molecule, the “deactivation energy, Ed” value ([6]; Arrhenius model) was -22.4 kcal/mol, the “temperature of maximum instantaneous activity” value ([6]; range 10 to 55° C., one minute of incubation) was 40 °C and the “Enthalpy of deactivation, ΔH” value [7] was 1.19 kcal/mol. The “activity at 55° C.” value ([7]; 55° C.) was “inactive”, the “T50^30, temperature that exhibited half of the original activity” value ([7]; 30 minutes incubation) was 45 °C and the “H2O2 produced, ratio of NADH” value [8] was 2.63%.
